Laboratory results published in patent US12173330B2, “Method for producing hydroxy-L-pipecolic acid” (API CORPORATION, priority 2015, dated 2024).

B1: SmPH: L-proline cis-4-hydroxylase from Sinorhizobium meliloti 1021, GenBank CAC47686, SEQ ID NO: 10 (protein, listed as Sinorhizobium meliloti)
chain: MSTHFLGKVKFDEARLAEDLSTLEVAEFSSAYSDFACGKWEACVLRNRTGMQEEDIVVSHNAPALATPLSKSLPYLNELVETHFDCSAVRYTRIVRVSENACIIPHSDYLELDETFTRLHLVLDTNSGCANTEEDKIFHMGLGEIWFLDAMLPHSAACFSKTPRLHLMIDFEATAFPESFLRNVEQPVTTRDMVDPRKELTDEVIEGILGFSIIISEANYREIVSILAKLHFFYKADCRSMYDWLKEICKRRGDPALIEKTASLERFFLGHRERGEVMTY
B2: CgPH: L-pipecolic acid trans-4-hydroxylase from Colletotrichum gloeosporioides Nara qc5, GenBank ELA34460, SEQ ID NO: 12 (protein)
chain: MSDKGATLDMSLFFGTPEEKGYFCTELLRLLKLRGGVKIQNHSIPDEDIHKLFDMSRKFFALPLETKMEAKHPPQANPNRGYSFIGQENVANISGYEKGLGPGKTRDIKETLDMGSAQDDLVDNLWIPEESLPGFRGFMESFYEKAFKTEMQLLSALAIALGVSEDHMKTLHNRAENEFRLLHYPAIPATELADGTATRIAEHTDFGTITMLFQDSVGGLQVEDQTQPGVFRSVESEKPTDIILNIGDSLQRLTNDTFRAACHRVTYPPAIKARDNVQIPERYSIAYFVKPNRHASLLPLKEFITDATPCRYEDVTAWEWNNRRITKLFG
modifications: Colletotrichum gloeosporioides
B3: PcPH: L-pipecolic acid trans-4-hydroxylase from Penicillium chrysogenum Wisconsin 54-1255, GenBank XP_002558179, SEQ ID NO: 14 (protein, listed as Penicillium chrysogenum)
chain: MSQALDLSLLKGSPEERDEVSAALLDTLKTRGVAKLKNHGLPEDLIAEMFDYTRRFFSLSLEDKMTAKHPPEANPNRGYSYVGQESVSSISGYEKGLPQGKTIRDIKETLDMGSPHDSLVDNIWVAEEKLPGFRKFMEDFYESCFKVELEILDALAQALEISAPDLRLLHNKAENEFRLLHYPAVPASALEDGTATRIAEHTDFGTITMLFQDSTGGLQVEDQTNLGTFHDVVSGGKSEIILNIGDSLQRLTNDTFMAACHRVTYPPTVKVGSDVVIPERYSVAYFAKPNRIASLFPLKKFITPATPCKYEDITAWDYNNLRIAKLFS
B4: XdPH: L-proline cis-4-hydroxylase from Xenorhabdus doucetiae FRM16, GenBank CDG16639, SEQ ID NO: 8 (protein, listed as Xenorhabdus doucetiae)
chain: MMSAKLLASIELNQEQIEHDLNIVGSEILDVAYSEYACGNWGTITLWNHSGDAGDQTSREYVGQARPTELGQQLDCINQLIRNNFNISLIKSVRIFRSYNGGAIYPHIDYLEFNQGFKRVHLVLKSDRSCLNSEENTVYHMLPGEVWFVDGHSAHSAMSLSRVGKYSLVLDFDSGAKFEDLYSESHTLCVDNLEPDIIHDRQPLPTSLRDSLAHIAEHADEFNIQSILFLATRFHFSYAVSIREYFQLLDECFSRNPYKSVRERYEALKDILVRSGYTSHNVNHFNSLSGVTIG
B5: KjPH: amino acid hydroxylase from Kordia jejudonensis, GenBank WP_046758372, SEQ ID NO: 18 (protein, listed as Kordia jejudonensis)
chain: MESKIIGKVNFEEHLLDKELKLIDTFEFNDSYSEYASGIWKTCMLWNRSGQKDDHLSIEHDTYVKPTEYGKQLAYVNEIIANTFKKEHIKTVRLFMCINGLIIPHKDYLEFKKGFTRIHIPLKINEHALTSEEDVVYNMQKGEIWFIEGRKIHSAANFSKVKRINLVIDFAPDIPFEELFLNSENYQPNLIPKISQRTQLKEEELGYIKGLSKIINEMNFDDILSILSKIHFYRNVSSELVFGWLDEIATASNNYNIQRKAQEVTDLLIRKGPINN
B6: SruPH: L-pipecolic acid cis-5-hydroxylase from Segniliparus rugosus ATCC BAA-974, GenBank EFV12517, SEQ ID NO: 4 (protein, listed as Segniliparus rugosus)
chain: MKSYSLGKFEDRSIDSLIEEASGLPDSAYSSAYQEYSIGLWDTATLWNERGNESGEVSEHAAAAAPTAIGRSTPRLNEFVRAKFNVDVLRAVRLFRARQGAIIIPHRDYLEHSNGFCRIHLPLVTTPGARNSENNEVYRMLPGELWFLDSNEVHSGGVLDSGTRIHLVLDFTHEHNENPAAVLKNADRLRPIARDPRISRSKLDHEALESLIRGGRVVTLAMWPALVQMLARIHLTSDAHPAELYDWLDDLADRSGNDELVAEARRMRRYFLTDGISRTPSFERFWRELDAARKGELVS

Legend:
[1] = Catalytic efficiency (kcat/Km) of L-pipecolic acid hydroxylases with L-proline (Example 3); assay type: biochemical; conditions: for hydroxy-L-proline detected from the reaction solution: L-proline as substrate, Example 3, in words; for Activity, Substrate: L-proline (cell spanning Km to kcat/Km): in words
Experimental: Each of the obtained recombinant E. coli strains in a volume of 0.6 mL was recovered by centrifugation and was suspended in 0.5 mL of 50 mmol/L MES (2-morpholinoethanesulfonic acid) buffer at pH 6. The container containing the suspension was placed in ice-water bath to perform sonication and then spun at 12,000 rpm. The obtained supernatant was used as an enzyme solution in Example 3.
Subsequently, 0.05 mL of 1 mol/L hydrochloric acid was added to stop the reaction.
The reaction using L-proline as a substrate was carried out under the same conditions as in the above reaction using L-pipecolic acid.
Then, each reaction solution was treated using 1-fluoro-2,4-dinitrophenyl-5-L-alaninamide (FDAA) (manufactured by Tokyo Chemical Industry Co., Ltd.) according to a method as described below, to obtain a FDAA-derivative of a hydroxy-L-pipecolic acid or hydroxy-L-proline included in each reaction solution.
To the reaction solution after stopping the reaction, 0.05 mL of 1 mol/L sodium hydroxide was added for neutralization. After centrifuging the solution at 12,000 rpm, 15 μL of 0.5 mol/L borate buffer (pH 9) was added to 15 μL of the obtained supernatant, followed by further addition of 30 μL of 20 mmol/L FDAA solution in acetone and incubation at 40° C. for one hour. Subsequently, 10 μL of 1 mol/L hydrochloric acid was added to stop the derivatization reaction. The resulting solution was diluted by adding 80 μL of methanol, and then centrifuged at 12,000 rpm. The obtained supernatant was used as a FDAA derivative solution.
The amount of produced hydroxy-L-pipecolic acid or hydroxy-L-proline was analyzed with UPLC-MS (manufactured by Waters Co.).
An aliquot containing 5 μg of total protein was taken from each enzyme solution obtained in Example 2, loaded on each lane, and then electrophoresed on polyacrylamide gel. The obtained electrophoretogram was analyzed using the image analysis software Image Lab3.0 (manufactured by Bio-Rad Laboratories, Inc.) to determine the content of each hydroxylase. A carbonic anhydrase (manufactured by Sigma-Aldrich Co. LLC) was used as a quantification reference. The content of a hydroxylase of interest was calculated from the signal intensity of the enzyme of interest, based on the signal intensities of bands corresponding to 200 ng, 400 ng and 600 ng of the quantification reference provided for the electrophoresis.
The catalytic efficiency of each enzyme was calculated based on the Michaelis-Menten kinetic equation.
It is known that, in FIG. 1, the reciprocal of each intercept with the x-axis, multiplied with −1, represents a km value (mmol/L) and the reciprocal of each intercept with the y-axis represents a Vmax value (U/mg), the maximum rate of reaction.
The catalytic ability per molecule of the enzyme (kcat) can be calculated from the Vmax and the molecular weight of the enzyme. Table 5 indicates the result of the calculation of catalytic efficiency (kcat/km), which is an index representing the catalytic ability of an enzyme, based on the obtained kcat and km values.

[2] = Production of hydroxy-L-pipecolic acids by culture of recombinant E. coli expressing the hydroxylase (Example 5); assay type: cell-based, E. coli BL21 (DE3); conditions: for Accumulation of (4S)-hydroxy-L-proline: 120 hours; for Accumulation amount of (4S)-hydroxy-L-proline / Accumulation amount of (5S)-Hydroxy-L-pipecolic acid / Accumulation amount of L-pipecolic acid / Accumulation amount of (4R)-hydroxy-L-proline / Accumulation amount of (4S)-hydroxy-L-pipecolic acid: 20 mmol/L L-pipecolic acid in medium, 30° C.; for Accumulation of (4R)-hydroxy-L-proline: 64 hours; for Conversion of the substrate to (4S)-hydroxy-L-pipecolic acid: incubation for 64 hours
[3] = Reactivity comparison of L-pipecolic acid 5-hydroxylases, substrate L-proline (Example 4); conditions: for Relative activity, Substrate: L-proline (hydroxy-L-proline-producing activity, 100 = hydroxy-L-pipecolic acid-producing activity): 10 mmol/L substrate, 30° C., 30 minutes; for hydroxy-L-proline detected from the reaction solution: Example 4, 10 mmol/L L-proline, in words
Experimental: (§1) The detection of the products was based on the absorbance at a wavelength of 340 nm.
(§2) The activity values were evaluated by the amount of a product per gram of total protein (U/g-protein).

[4] = Reactivity comparison of L-pipecolic acid 5-hydroxylases, substrate L-pipecolic acid (Example 4); conditions: 10 mmol/L substrate, 30° C., 30 minutes; hydroxy-L-pipecolic acid-producing activity set to 100
Experimental: as §1, §2

| Molecule | hydroxy-L-proline detected from the reaction solution [1] | Accumulation of (4S)-hydroxy-L-proline ([2]; in words) | Accumulation amount of (4S)-hydroxy-L-proline ([2]; after 120 hours) [mmol/L] | Accumulation amount of (5S)-Hydroxy-L-pipecolic acid ([2]; after 120 hours) [mmol/L] | Accumulation amount of L-pipecolic acid ([2]; after 120 hours) [mmol/L] | Relative activity, Substrate: L-proline (hydroxy-L-proline-producing activity, 100 = hydroxy-L-pipecolic acid-producing activity) [3] [%] | hydroxy-L-proline detected from the reaction solution [3] | Relative activity, Substrate: L-pipecolic acid [4] [%] | Activity, Substrate: L-proline (cell spanning Km to kcat/Km) [1] | Accumulation of (4R)-hydroxy-L-proline ([2]; in words) | Accumulation amount of (4R)-hydroxy-L-proline ([2]; after 64 hours) [mmol/L] | Accumulation amount of (4S)-hydroxy-L-pipecolic acid ([2]; after 64 hours) [mmol/L] | Accumulation amount of L-pipecolic acid ([2]; after 64 hours) [mmol/L] | Conversion of the substrate to (4S)-hydroxy-L-pipecolic acid ([2]; in words) | Conversion of the substrate to (5S)-hydroxy-L-pipecolic acid ([2]; incubation for 120 hours, in words) |
| --- | --- | --- | --- | --- | --- | --- | --- | --- | --- | --- | --- | --- | --- | --- | --- |
| B1 | small amount of hydroxy-L-proline was detected | Accumulation of (4S)-hydroxy-L-proline was confirmed | 0.2 | 9.4 | 5.6 | 46 | small amount of hydroxy-L-proline was detected | 100 | – | – | – | – | – | – | – |
| B2 | no hydroxy-L-proline was detected | – | – | – | – | – | – | – | (No activity) | no accumulation of (4R)-hydroxy-L-proline was confirmed | 0 | 19.1 | 0.2 | a major amount of the substrate was allowed to convert to (4S)-hydroxy-L-pipecolic acid | – |
| B3 | no hydroxy-L-proline was detected | – | – | – | – | – | – | – | (No activity) | no accumulation of (4R)-hydroxy-L-proline was confirmed | 0 | 17.4 | 2.1 | a major amount of the substrate was allowed to convert to (4S)-hydroxy-L-pipecolic acid | – |
| B4 | small amount of hydroxy-L-proline was detected | Accumulation of (4S)-hydroxy-L-proline was confirmed | 0.3 | 15.2 | 10.6 | 37 | small amount of hydroxy-L-proline was detected | 100 | – | – | – | – | – | – | – |
| B5 | small amount of hydroxy-L-proline was detected | – | – | – | – | – | – | – | – | – | – | – | – | – | – |
| B6 | small amount of hydroxy-L-proline was detected | Accumulation of (4S)-hydroxy-L-proline was confirmed | 1.8 | 22.5 | 0.1 | 59 | small amount of hydroxy-L-proline was detected | 100 | – | – | – | – | – | – | almost the entire amount of the substrate was allowed to convert to (5S)-hydroxy-L-pipecolic acid |
